Experimental data published in patent US20250197448A1, “CYCLOPEPTIBODIES AND USES THEREOF” (University of Rochester, priority 2022, published 2025).
Values belong to the substance of their own block, whether it stands above or below them. Starred links: 1 amine or outer side, 2 acyl side, 3 side chain; linkers in the order of their positions; H or OH if unused. Positions of bridges follow the written chain, without caps; N, C: chain ends. Non-standard residues stand in square brackets, D forms with d. No end group written: not given here. O2beY = O-(2-bromoethyl)-tyrosine (p-2beF), reacts with Cys to form a thioether, O=C([C@H](Cc1ccc(OCCBr)cc1)N[*:1])[*:2]; pCaaF = p-(2-chloroacetamido)-phenylalanine, O=C(CCl)Nc1ccc(C[C@H](N[*:1])C(=O)[*:2])cc1

How the values were obtained:
[1] = target: T1, integrin αvβ3 on MDA-MB-231 cells (Homo sapiens, UniProt P05106+P06756); assay: flow cytometry of MDA-MB-231 cells, integrin receptor labeling; type: cell-based; conditions: for labeling of integrin receptors on MDA-MB-231 cells (in words): FITC anti-IgG1 Fc detection
T1 construct: known to express high levels of integrin αvβ3 on their surface; endogenous in cells; host or cells: MDA-MB-231
T1 sequence (P06756 31-889 limits assumed): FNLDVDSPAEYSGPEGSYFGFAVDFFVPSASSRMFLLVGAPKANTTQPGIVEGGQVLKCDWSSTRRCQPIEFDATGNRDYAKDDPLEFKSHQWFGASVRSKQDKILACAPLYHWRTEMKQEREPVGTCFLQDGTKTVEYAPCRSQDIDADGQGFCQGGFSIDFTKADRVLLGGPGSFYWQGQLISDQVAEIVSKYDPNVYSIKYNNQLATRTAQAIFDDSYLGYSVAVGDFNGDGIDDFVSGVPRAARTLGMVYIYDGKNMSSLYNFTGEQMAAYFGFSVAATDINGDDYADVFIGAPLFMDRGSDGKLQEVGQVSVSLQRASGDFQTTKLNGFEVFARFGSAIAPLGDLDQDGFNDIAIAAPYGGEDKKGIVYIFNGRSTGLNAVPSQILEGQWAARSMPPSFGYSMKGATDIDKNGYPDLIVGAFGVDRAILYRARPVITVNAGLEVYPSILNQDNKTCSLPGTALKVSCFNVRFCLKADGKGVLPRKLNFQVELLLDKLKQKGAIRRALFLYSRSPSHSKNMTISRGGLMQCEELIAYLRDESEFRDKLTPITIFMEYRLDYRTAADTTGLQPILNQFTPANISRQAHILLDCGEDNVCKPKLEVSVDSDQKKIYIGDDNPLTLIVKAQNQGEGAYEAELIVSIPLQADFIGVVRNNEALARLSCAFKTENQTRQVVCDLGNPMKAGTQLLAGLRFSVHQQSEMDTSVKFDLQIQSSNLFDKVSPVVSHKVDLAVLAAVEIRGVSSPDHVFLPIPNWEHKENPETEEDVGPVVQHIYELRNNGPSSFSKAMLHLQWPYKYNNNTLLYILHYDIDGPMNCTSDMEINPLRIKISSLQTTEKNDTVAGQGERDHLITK
T1 sequence (P06756 891-1048 partner limits assumed): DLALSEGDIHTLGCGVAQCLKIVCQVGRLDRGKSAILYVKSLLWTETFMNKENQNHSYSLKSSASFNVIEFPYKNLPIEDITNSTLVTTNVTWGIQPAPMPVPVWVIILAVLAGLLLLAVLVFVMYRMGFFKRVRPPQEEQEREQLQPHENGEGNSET
T1 sequence (P05106 27-788): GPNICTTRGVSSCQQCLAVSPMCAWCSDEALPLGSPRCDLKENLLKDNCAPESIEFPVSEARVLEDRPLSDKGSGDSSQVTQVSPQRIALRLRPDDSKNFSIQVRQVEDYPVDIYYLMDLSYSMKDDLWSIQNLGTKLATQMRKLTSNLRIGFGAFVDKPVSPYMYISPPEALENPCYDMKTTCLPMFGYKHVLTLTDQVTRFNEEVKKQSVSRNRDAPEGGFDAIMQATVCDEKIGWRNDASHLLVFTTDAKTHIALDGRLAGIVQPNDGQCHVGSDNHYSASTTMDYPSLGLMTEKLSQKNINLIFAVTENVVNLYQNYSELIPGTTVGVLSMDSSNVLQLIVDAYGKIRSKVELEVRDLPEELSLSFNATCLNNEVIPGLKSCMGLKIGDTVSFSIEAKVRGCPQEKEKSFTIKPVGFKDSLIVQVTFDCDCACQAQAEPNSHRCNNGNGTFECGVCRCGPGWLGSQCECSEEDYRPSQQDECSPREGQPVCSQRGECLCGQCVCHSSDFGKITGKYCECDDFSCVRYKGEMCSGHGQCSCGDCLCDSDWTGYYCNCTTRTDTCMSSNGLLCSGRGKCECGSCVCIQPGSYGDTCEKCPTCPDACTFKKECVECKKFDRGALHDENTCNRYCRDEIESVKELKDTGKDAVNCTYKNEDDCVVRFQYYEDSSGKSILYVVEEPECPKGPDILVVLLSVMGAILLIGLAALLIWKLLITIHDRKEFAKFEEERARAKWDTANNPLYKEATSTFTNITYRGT
Experimental: Flow Cytometry Analysis. Cell line MDA-MB-231 was grown in culture to reach confluency. When confluent, media was aspirated, cells were washed once with 1×DPBS (no calcium, no magnesium) (Gibco). Adherent cells were detached from the petri dish with 1 mL of accutase (Gibco) pre-warmed to 37° C., followed by incubated for 5 min at 37° C. Cells were spun down using centrifugation. Supernatant was removed and cells were washed three times with staining buffer (1×PBS with 0.5% BSA). Cells were resuspended in Eppendorf tubes in 100 μL PBS at a concentration of […]. Cyclopeptibodies or Human anti-PD-L1 antibody (1 μg) (R&D Systems, MAB10355) in staining buffer were then added to the tubes with a concentration of 1.5 μM in 200 μL. Eppendorf tubes were then placed on the platform shaker for gently shaking for 1 hour at room temperature. After 1 hour, cells were spun down using centrifugation, then supernatant was removed. After washing three times, cells were resuspended in 200 μL of Fluorescein (FITC) AffiniPure Goat Anti-Human IgG with working concentration of 30 μg/mL (Jackson ImmunoResearch, 109-095-098), incubated in the dark for 30 min at room temperature. Cells were washed as described above, then resuspended in 400 μL staining buffer. Then cells were analyzed on a BD FACS Accuri C6^+ using a filter of 533/30. The cells of interest were gated using Forward and Side scatter (FSC/SSC). 10,000 singlet events were collected for each specimen.
After purification as described in Example 2, these cyclopeptibodies were used to treat breast cancer cells (MDA-MB-231), which are known to express high levels of integrin αvβ3 on their surface. The cyclopeptibody treated cells were then analyzed by flow cytometry using a procedure similar to that described for the PD-L1-targeting cyclopeptibodies in Example 9.

[2] = target: T2, PD-L1 receptor on MDA-MB-231 cells (Homo sapiens, UniProt Q9NZQ7); assay: flow cytometry of MDA-MB-231 cells, PD-L1 labeling with FITC anti-human IgG Fc; type: cell-based; conditions: concentration not given at the place
T2 construct: known to express high levels of PD-L1 on their surface; endogenous in cells; host or cells: MDA-MB-231
T2 sequence (Q9NZQ7 19-290): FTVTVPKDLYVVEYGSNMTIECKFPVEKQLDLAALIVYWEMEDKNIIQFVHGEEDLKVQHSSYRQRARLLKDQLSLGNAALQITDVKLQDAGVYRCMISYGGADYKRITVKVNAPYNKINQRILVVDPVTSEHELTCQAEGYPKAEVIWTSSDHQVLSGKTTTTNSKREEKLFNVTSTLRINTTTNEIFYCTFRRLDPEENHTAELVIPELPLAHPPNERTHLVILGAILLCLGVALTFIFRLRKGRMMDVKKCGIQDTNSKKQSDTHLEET
Experimental: The cells were then incubated with fluorescein-conjugated anti-human IgG Fc antibody and analyzed by flow cytometry. The same experiment was carried out in parallel using commercially available anti-PD-L1 antibody as positive control and various negative controls.
Flow Cytometry Analysis. […] When confluent, media was aspirated, cells were washed once with 1×DPBS (no calcium, no magnesium) (Gibco). Adherent cells were detached from the petri dish with 1 mL of accutase (Gibco) pre-warmed to 37° C., followed by incubated for 5 min at 37° C. Cells were spun down using centrifugation. Supernatant was removed and cells were washed three times with staining buffer (1×PBS with 0.5% BSA). Cells were resuspended in Eppendorf tubes in 100 μL PBS at a concentration of 107cells per mL. […] Eppendorf tubes were then placed on the platform shaker for gently shaking for 1 hour at room temperature. After 1 hour, cells were spun down using centrifugation, then supernatant was removed. […] Cells were washed as described above, then resuspended in 400 μL staining buffer. […] The cells of interest were gated using Forward and Side scatter (FSC/SSC). 10,000 singlet events were collected for each specimen.

[3] = serum stability assay in human blood serum; type: in vitro ADME
Experimental: The proteolytic stability of cyclopeptibodies cCLP003-Tras-Fc and L2-m5-Tras-Fc were assessed by incubating these proteins in human blood serum, followed by measurement of the cyclopeptibody activity using an in vitro binding assay with plate-immobilized PD-L1 or Sh as described in Example 7 and 8, respectively.
Serum stability Assay. The human male serum (Sigma-Aldrich) was clarified by centrifugation at 14 000 rpm for 15 min. 50% serum was prepared in phosphate-buffered saline (pH 7.4), then incubated at 37° C. Cyclopeptiodies were dissolved in 30 μL of 50% serum at a final concentration of 1 μM, incubated at 37° C. Serum samples with diluted cyclopeptibodies were prepared in the same way described above over a time course of 30 h for cCLP003-Tras-Fc-His and 24 h for L2-m5-Tras-Fc-His, followed by incubated at 37° C. Intact cyclopeptibodies in serum were quantified using the binding assay described above. In the assay, immobilized PD-L1 or Shh was incubated with 100 μL of serum samples diluted with PBS (1:10 dilution for cCLP003-Tras-Fc-His, 1:100 dilution for L2-m5-Tras-Fc-His). Intact cyclopeptibody in each sample was detected with HRP-conjugate mouse anti-FLAG polyclonal antibody. The absolute concentration of intact cyclopeptibody in each serum sample was quantified using a calibration curve, which was generated from a binding assay in which immobilized PD-L1 or Shh was incubated with cyclopeptibody in serial dilution (0-100 nM for cCLP003-Tras-Fc-His; 0-10 nM for L2-m5-Tras-Fc-His), followed by detected with HRP-conjugate mouse anti-FLAG polyclonal antibody, absorbance at 450 nm was measured as a function of cyclopeptibody concentration.

labeling of integrin receptors on MDA-MB-231 cells (in words) [1]: label the cells
Substance: FLAG-(GS)2-CRDRGDYZ-(Q)6-IEGR-(Fc)^1-H6 (DYKDDDDKGSGSCRDRGDY[pCaaF]QQQQQQIEGR-{Fc-H6}; thioether 13-20 (inferred)) [RGD5R (pCaaF)-Tras-Fc]
labeling of integrin receptors on MDA-MB-231 cells (in words) ([1]; listed as cRGD5R (pCaaF)-Tras-Fc): selective labeling of the integrin receptors

Substance: FLAG-(GS)2-CRDRGDYZ-(Q)6-IEGR-(Fc)^1-H6 [RGD5R (pCmF)-Tras-Fc]
labeling of integrin receptors on MDA-MB-231 cells (in words) ([1]; listed as cRGD5R (pCmF)-Tras-Fc): selective labeling of the integrin receptors
receptor affinity and labeling efficiency compared to the corresponding cyclic peptides ([1]; MDA-MB-231 cells): superior receptor affinity and labeling efficiency

staining / labeling of PD-L1 receptors on MDA-MB-231 cells (in words) [2]: selective labeling of PD-L1 receptors
Substance: FLAG-(GS)2-WHFSZNWRWLPC-(Q)6-(Fc)^1-H6 (DYKDDDDKGSGSWHFS[pCaaF]NWRWLPCQQQQQQ; thioether 17-24 (inferred); not fully specified (C-terminus)) [cCLP003-Tras-Fc]
half-life in human blood serum ([3]; 50% serum, 37° C., readout PD-L1 binding assay): over 24 hrs.

Substance: FLAG-(GS)2-TLSWZEAMDMCTSS-(Q)6-(Fc)^1-H6 (DYKDDDDKGSGSTLSW[O2beY]EAMDMCTSSQQQQQQ-{Fc-H6}; thioether 17-23 (inferred)) [L2-m5-Tras-Fc]
half-life in human blood serum, indicated ([3]; 50% serum, 37° C., readout Shh binding assay): 30 to 50 h
loss in activity in human blood serum ([3]; over 24 h, readout Shh binding assay): no loss in activity
